From article PMC4622054
Read-outs that look alike come from different tables or passages of the source.

What was measured:
[1] = biological target: Human FcRn (hFcRn), soluble α-chain/β2m heterodimer (human) (UniProt P55899); assay: BLI
[2] = biological target: Human FcRn (hFcRn), soluble α-chain/β2m heterodimer (human) (UniProt P55899); assay: BLI; remark: listed apart in the source
[3] = biological target: Human FcRn (hFcRn), soluble α-chain/β2m heterodimer (human) (UniProt P55899); assay: BLI; hFcRn-loaded surface; human IgG1 as analyte, association at pH 6.0 and dissociation at pH 6.0
[4] = biological target: CDA1 (actoxumab), human IgG1 monoclonal antibody (UniProt P01857); assay: biolayer interferometry (Octet QK, ForteBio); settings: 30°C, PBS (composition and salt concentration not stated), PBS adjusted to pH 6.0 with HCl for the acidic steps, PBS pH 7.5 for the physiological-pH steps
[5] = biological target: Human FcRn (hFcRn), soluble α-chain/β2m heterodimer, P55899;P61769; assay: BLI (in vitro BLI-based FcRn platform); settings: parent: est. 270; read off a plot

Chain of Human FcRn (hFcRn), soluble α-chain/β2m heterodimer (human) (P55899 34-290, chain 1 of 2): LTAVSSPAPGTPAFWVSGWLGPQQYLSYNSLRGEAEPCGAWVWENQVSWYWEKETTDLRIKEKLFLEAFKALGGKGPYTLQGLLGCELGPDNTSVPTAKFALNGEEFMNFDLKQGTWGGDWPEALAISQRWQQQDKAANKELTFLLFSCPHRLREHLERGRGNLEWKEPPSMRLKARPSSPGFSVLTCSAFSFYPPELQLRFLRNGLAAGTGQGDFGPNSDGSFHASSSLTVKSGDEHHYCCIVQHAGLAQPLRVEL
Chain of Human FcRn (hFcRn), soluble α-chain/β2m heterodimer (human) (P61769 21-119, chain 2 of 2, further chain): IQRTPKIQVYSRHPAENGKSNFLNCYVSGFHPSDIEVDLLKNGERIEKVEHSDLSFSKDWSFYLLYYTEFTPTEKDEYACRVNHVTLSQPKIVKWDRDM

For “CDA1 (actoxumab), fully human IgG1 mAb (antibody)”, the fold change FcRn binding rate [1] was 1.14 fold, the fold change of the association rate against RAB1 [1] was 1.09 fold and the fold change of the dissociation rate against CDB1 [1] was 1.18 fold. For the same substance, the koff [1] was 0.0906 s⁻¹, the koff [2] was 0.101 s⁻¹ and the fold slower off-rate at pH 6.0 than at pH 7.5 [3] was 5 fold.

For “soluble human neonatal Fc receptor (hFcRn; alpha-chain/beta2-microglobulin heterodimer)”, the “average association rate (apparent kon)” value ([4]; pH 6.0) was 0.2087 ± 0.0036 s⁻¹, the “kon (apparent association rate)” value ([4]; pH 6.0) was 0.110 s⁻¹ and the “average dissociation rate (koff)” value ([4]; pH 7.5) was 0.0906 ± 0.0034 s⁻¹. The koff ([4]; pH 7.5) was 0.101 s⁻¹.

“HCV1, fully human IgG1 mAb HCV (with CDA VH CDRs and CDB Vk CDRs): VH CDR1-3 of HCV1 replaced by VH CDRs of CDA1; Vk CDR1-3 of HCV1 replaced by Vk CDRs of CDB1; residues not printed” was tested, and the other: Predicted Human t1/2, β [5] was 27.1 days.
